Laboratory results as given in patent US20250270324A1 (INVOX PHARMA, published 2025).
Numbering of substitutions follows the chain as printed.

B1: G1/280_02_G02 (antibody, human IgG1, V domains shown)
VH: EVQLVQSGAEVKRPGASVKVSCKASGYTFTSYGISWVRQAPGQGLEWMGWISAYNGNTNYAQKLQGRVTMTTDTSTSTAYMELRSLRSDDTAVYYCARDLFPTIFGVSYYYYWGQGTLVTVSS
VL: QSALTQPASVSGSPGQSITISCTGTSSDVGGYNSVSWYQQFPGKAPKLMIFEVTNRPSGVSDRFSGSKSDNTASLTISGLQAEDEAEYYCSSFKRGSTLVVFG
B2: G1/929_01_A02 (antibody, human IgG1, V domains shown)
VH: B1 VH with N55S, N57G
VL: DIQMTQSPSTLSASVRDRVIITCRASQSIGNRLAWYQHKPGKAPKLLIYEASTSETGVPSRFSGSGSGTDFTLTISSLQPEDFATYYCQQSYSTPYTFGQGTKLEIKR
notes: IgG1; The heavy chain as printed has T28
B3: G1/894_08_E05 (antibody, human IgG1, V domains shown)
VH: B1 VH with G56S
VL: DIQMTQSPSTLSASVGDRVTITCRASQSISGRLAWYQQKPGKAPNLLIYEASNLESGVPSRFSGSGSGTEFTLTISSLQPEDFATYYCQQSYSTPRVTFGQGTKVEIKR
notes: IgG1 without LALA, kappa light chain; also called G1/894_8_E05
B4: G1/887_04_G12 (antibody, human IgG1, V domains shown)
VH: B1 VH with G56S
VL: DIQMTQSPSTLSASVGDRVTITCRASQSISGRLAWYQQKPGKAPNLLIYEASNLESGVPSRFSGSGSGTEFTLTISSLQPEDFATYYCQQSYSWPRTFGQGTKVEIKR
notes: IgG1 without LALA, kappa light chain
B5: G1/887_04_E12 (antibody, human IgG1, V domains shown)
VH: B1 VH with T28P, G56S
VL: B2 VL
notes: IgG1 without LALA, kappa light chain; proline at Kabat position 28 of VH

What was measured:
[1] = molecular target: T1, PD-L1 on PD-L1 cells (Promega, CS178103; PD1/PD-L1 Blockade Bioassay J1250/J1255) (UniProt Q9NZQ7 19-290); assay: cell-based or functional assay
T1 sequence (Q9NZQ7 19-290): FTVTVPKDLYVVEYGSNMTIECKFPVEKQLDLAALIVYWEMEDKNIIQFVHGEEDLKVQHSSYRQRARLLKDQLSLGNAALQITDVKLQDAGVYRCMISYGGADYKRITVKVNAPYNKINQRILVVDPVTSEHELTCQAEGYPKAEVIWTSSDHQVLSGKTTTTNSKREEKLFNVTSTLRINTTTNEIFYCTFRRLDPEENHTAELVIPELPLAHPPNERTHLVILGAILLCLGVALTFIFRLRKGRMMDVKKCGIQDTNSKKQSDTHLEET

Cyno PD-L1-rCD4-His [2] = molecular target: T2, Cyno PD-L1-rCD4-His (cynomolgus); assay: SPR; G1/929_01_A02 on PD-L1-rCD4-His (Table 8) against G1AA/E12v2 on PD-L1-His (Table 9)
T2 construct: The entry as printed begins with the signal peptide; also called cynomolgus PD-L1-rCD4-His
T2 sequence (chain, as listed by the source limits assumed): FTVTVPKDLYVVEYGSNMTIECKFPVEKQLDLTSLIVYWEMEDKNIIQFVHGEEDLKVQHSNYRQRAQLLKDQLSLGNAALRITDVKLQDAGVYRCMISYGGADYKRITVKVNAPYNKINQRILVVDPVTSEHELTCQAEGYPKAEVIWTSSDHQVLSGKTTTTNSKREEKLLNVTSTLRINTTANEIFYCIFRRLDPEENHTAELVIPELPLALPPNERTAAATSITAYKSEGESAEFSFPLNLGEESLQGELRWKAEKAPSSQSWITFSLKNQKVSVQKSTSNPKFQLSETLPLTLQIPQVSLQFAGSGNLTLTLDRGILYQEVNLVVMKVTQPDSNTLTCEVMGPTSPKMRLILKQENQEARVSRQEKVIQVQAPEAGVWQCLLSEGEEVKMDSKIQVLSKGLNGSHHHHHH

human PD-L1-rCD4-His [3] = molecular target: T3, human PD-L1-rCD4-His (human); assay: as above
T3 construct: Human PD-L1 fused to the monomeric C-terminal rat CD4 domains 3 and 4 tag and His tag; made in HEK293; The entry as printed begins with the signal peptide (MRIF...); also called hPD-L1-rCD4-His; hu-PD-L1-rCD4-His
T3 sequence (chain, as listed by the source limits assumed): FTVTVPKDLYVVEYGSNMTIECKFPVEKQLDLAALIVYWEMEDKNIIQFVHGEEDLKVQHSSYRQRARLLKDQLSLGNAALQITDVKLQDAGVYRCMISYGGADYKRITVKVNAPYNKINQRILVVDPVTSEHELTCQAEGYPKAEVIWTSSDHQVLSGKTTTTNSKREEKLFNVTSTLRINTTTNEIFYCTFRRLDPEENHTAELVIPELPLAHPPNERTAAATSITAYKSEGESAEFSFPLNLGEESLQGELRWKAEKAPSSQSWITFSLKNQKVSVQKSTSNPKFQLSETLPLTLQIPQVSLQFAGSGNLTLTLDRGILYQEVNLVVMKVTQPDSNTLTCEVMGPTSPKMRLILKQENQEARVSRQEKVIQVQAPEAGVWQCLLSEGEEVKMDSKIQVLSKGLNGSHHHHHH

Cyno PD-L1-rCD4-His [4] = molecular target: T2, Cyno PD-L1-rCD4-His; assay: SPR, IgG1 from culture supernatant
human PD-L1-rCD4-His [5] = molecular target: T3, human PD-L1-rCD4-His; assay: SPR, IgG1 from culture supernatant
[6] = molecular target: T4, human PD-L1 on HEK293 cells (HEK293.hPD-L1) (human, UniProt Q9NZQ7 19-290); assay: flow cytometry on HEK293 cells expressing human PD-L1, GMFI against concentration
T4 construct: Flp-In T-REx 293 cells stably overexpressing human PD-L1; also called cell surface human PD-L1
T4 sequence (Q9NZQ7 19-290): as the sequence (Q9NZQ7 19-290) above
Procedure: Non-specific binding was also assessed by testing binding to HEK293 parental cells lacking human PD-L1 (Flp-In T-Rex 293 cell line, Life Technologies, R780-07).
HEK293 and HEK293.hPD-L1 suspensions were prepared in PBS containing 0.5% BSA (Sigma. A7906) and seeded at 1×10⁵ cell/well in 100 μl in round bottomed 96-well plates (VWR, 734-1797). […] The washed cells were resuspended in the diluted antibody mixture, incubated at 4° C. for 30 minutes, and then washed once in PBS. 100 μl/well of secondary antibody (Alexa Fluor 647-AffiniPure Goat Anti-Human IgG, F(ab′)2 Fragment Specific, Stratech Scientific, 109-605-006-JIR) diluted 1:1000 in PBS was then added, the cells/antibody mixture was incubated for 20 mins at 4° C., and the cells were then washed again with PBS and resuspended in 100 μl of PBS containing 7AAD (1:1000, Biotium, 40043) before being analysed using a Canto II flow cytometer (BD Bioscience). Dead cells were excluded and the fluorescence in the FITC channel (488 nm/530/30) was measured. The geometric mean fluorescence intensity (GMFI) values were plotted against the log concentration of antibody and the resulting curves were fitted using the log (agonist) versus response equation in GraphPad Prism.

[7] = molecular target: T5, biotinylated human PD-L1-Avi-His (Acro Biosystems, PD1-H82E5) (human, UniProt Q9NZQ7 19-238, biotinylated); assay: SPR; end of the range tied to this clone by the KD values of Table 4
T5 construct: Bought
T5 sequence (Q9NZQ7 19-238 limits assumed): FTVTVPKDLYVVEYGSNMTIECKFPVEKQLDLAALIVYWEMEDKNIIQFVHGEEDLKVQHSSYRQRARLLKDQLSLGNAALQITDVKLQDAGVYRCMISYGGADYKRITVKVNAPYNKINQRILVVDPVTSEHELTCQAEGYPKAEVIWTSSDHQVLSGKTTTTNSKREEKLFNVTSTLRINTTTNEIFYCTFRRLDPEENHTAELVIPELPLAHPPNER
Procedure: (§1) Briefly, the anti-PD-L1 mAbs, diluted in HBS-EP buffer (GE Healthcare, BR100188) at 2 μg/ml, were injected individually on flows cell 2, 3 and 4 of a Protein A chip (GE Healthcare, 29127556) at 30 μl/min to achieve a final response of approximately 110 RU. The recombinant human, cynomolgus and mouse PD-L1-His antigens, diluted in HBS-EP buffer, were injected on flow cell 1, 2, 3 or 4 as appropriate at a concentration range of 81 nM to 0.037 nM with 3-fold dilutions for 4 min at 75 μl/min and then allowed to dissociate in buffer for 10 min. Regeneration was achieved by injecting 10 mM glycine-HCL pH1.5 (GE Healthcare, Human Antibody Capture Kit, BR00356) for 30 sec at a rate of 30 μl/min. Subtracted data (flow cell 2-flow cell 1, flow cell 3-flow cell 1, or flow cell 4-flow cell 1) were analysed using BIAevaluation 3.2 Software (GE Healthcare) to identify binding using the model 1:1 binding with mass transfer, with refractive index (RI) constant 0. To determine the affinities of the mouse PD-L1 binding curves, the Rmax of the corresponding human binding profiles was used.

[8] = molecular target: T6, mouse PD-L1-His (Acro Biosystems, PD1-M5220) (mouse, UniProt Q9EP73 19-238); assay: SPR (Biacore T200), mAb on Protein A chip, antigen 81-0.037 nM; Rmax of the human profile used
T6 construct: Bought; also called recombinant mouse PD-L1
T6 sequence (Q9EP73 19-238 limits assumed): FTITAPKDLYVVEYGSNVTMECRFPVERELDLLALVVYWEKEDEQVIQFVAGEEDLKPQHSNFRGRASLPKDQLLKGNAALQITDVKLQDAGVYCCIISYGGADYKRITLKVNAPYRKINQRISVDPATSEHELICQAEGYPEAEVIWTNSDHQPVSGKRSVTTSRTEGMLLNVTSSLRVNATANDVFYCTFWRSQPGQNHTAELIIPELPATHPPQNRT
Procedure: as §1

[9] = molecular target: mouse PD-L1 on LK35.2 cells (LK35.2 mPD-L1) (mouse, UniProt Q9EP73 19-290); assay: cell-based or functional assay
Sequence of mouse PD-L1 on LK35.2 cells (LK35.2 mPD-L1) (Q9EP73 19-290): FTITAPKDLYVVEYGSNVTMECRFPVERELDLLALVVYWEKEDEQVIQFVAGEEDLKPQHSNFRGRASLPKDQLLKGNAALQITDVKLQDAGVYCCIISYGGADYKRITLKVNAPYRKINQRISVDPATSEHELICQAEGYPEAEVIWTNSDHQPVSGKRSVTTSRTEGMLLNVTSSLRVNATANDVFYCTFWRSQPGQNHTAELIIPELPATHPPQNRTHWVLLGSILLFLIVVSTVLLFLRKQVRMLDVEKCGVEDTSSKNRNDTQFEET

[10] = molecular target: T1, PD-L1 on PD-L1 cells (Promega, …); assay: cell-based or functional assay; remark: listed apart in the source
[11] = molecular target: T7, cynomolgus PD-L1-His (Acro Biosystems, PD1-C52H4) (cynomolgus, UniProt G7PSE7 19-239); assay: SPR (Biacore T200), mAb on Protein A chip, antigen 81-0.037 nM
T7 construct: Bought; also called Cyno PD-L1-His
T7 sequence (G7PSE7 entry or part of it): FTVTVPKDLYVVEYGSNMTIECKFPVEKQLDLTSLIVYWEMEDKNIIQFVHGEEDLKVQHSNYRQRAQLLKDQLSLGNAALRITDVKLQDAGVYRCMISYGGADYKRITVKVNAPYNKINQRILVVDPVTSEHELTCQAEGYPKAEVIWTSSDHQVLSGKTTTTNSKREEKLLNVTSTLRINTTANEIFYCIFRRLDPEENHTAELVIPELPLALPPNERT
Procedure: as §1

[12] = molecular target: T5, biotinylated human PD-L1-Avi-His (Acro …); assay: as above
Procedure: as §1

Binder	half maximal effective concentration (EC50), dose-response co-culture reporter assay (luciferase) [1]	fold lower affinity than G1AA/E12v2 (Cyno PD-L1-rCD4-His [2])	fold lower affinity than G1AA/E12v2 (human PD-L1-rCD4-His [3])	Kd (Cyno PD-L1-rCD4-His [4])	Kd (human PD-L1-rCD4-His [5])	EC50 [6]	fold higher binding affinity than G1AA/280_02_G02_NS [7]	Kd [8]	EC50 (nM), mPD-L1 DO11.10 T Cell Activation Assay (IL-2 release) [9]	Emax (pg/ml), mPD-L1 DO11.10 T Cell Activation Assay (IL-2 release) [9]	IC50 (nM), PD1/PD-L1 Blockade Bioassay [10]	Kd [11]	Kd [12]
B1	4200 pM												
B2		> 10 fold	> 10 fold	3640 pM	3070 pM								
B3				590 pM	480 pM	290 pM	1.8 to 4.8 fold	223000 pM	4.37 nM	2110 pg/mL	0.36 nM	490 pM	600 pM
B4				500 pM	360 pM	270 pM		225000 pM	2.71 nM	1910 pg/mL	0.33 nM	450 pM	390 pM
B5				250 pM	210 pM	260 pM	1.8 to 4.8 fold	38000 pM	1.02 nM	1970 pg/mL	0.35 nM	280 pM	230 pM
